We go through 94 variants from the supplement of paper PMC10567573.

B1: CFHR2 (parent)
chain: FVENGHSESSGQTHLEGDTVQIIC
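Also: lentivirally expressed fusions sorted by FACS into six bins by GFP to DsRed ratio, PSI derived from sequencing read proportions per bin multiplied by bin number.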

Variants of B1 are the subject of the series. As to the kind of experiment: protein stability index of a GFP-peptide fusion (GPS, HEK-293T) (PSI 1-6); higher = more stable. Conditions: c terminus: a fixed tail appended.
With FVENGHSESRGQTHLEGDTVQIIC [S10R], the protein stability index was determined as 2.59.
For CVENGHSESSGQTHLEGDTVQIIC [F1C] the value was 3.73.
Next, SVENGHSESSGQTHLEGDTVQIIC [F1S]: 4.14; GVENGHSESSGQTHLEGDTVQIIC [F1G]: 4.33; EVENGHSESSGQTHLEGDTVQIIC [F1E]: 4.95.
Consider QVENGHSESSGQTHLEGDTVQIIC [F1Q], for which the protein stability index is 4.37.
Next, RVENGHSESSGQTHLEGDTVQIIC [F1R]: 3.83; WVENGHSESSGQTHLEGDTVQIIC [F1W]: 3.86; NVENGHSESSGQTHLEGDTVQIIC [F1N]: 4.1.
For MVENGHSESSGQTHLEGDTVQIIC [F1M] the value was 4.23; for PVENGHSESSGQTHLEGDTVQIIC [F1P], 4.61; for DVENGHSESSGQTHLEGDTVQIIC [F1D], 4.7.
Regarding TVENGHSESSGQTHLEGDTVQIIC [F1T], the protein stability index turned out to be 3.96.
Regarding HVENGHSESSGQTHLEGDTVQIIC [F1H], the protein stability index was found to be 4.43.
Next, VVENGHSESSGQTHLEGDTVQIIC [F1V]: 3.92.
Next, LVENGHSESSGQTHLEGDTVQIIC [F1L]: 3.89.
Next, IVENGHSESSGQTHLEGDTVQIIC [F1I]: 4; KVENGHSESSGQTHLEGDTVQIIC [F1K]: 4.2.
For the variant YVENGHSESSGQTHLEGDTVQIIC [F1Y], the protein stability index came out at 2.69.
Next, FVENGHSEGSGQTHLEGDTVQIIC [S9G]: 2.7; FVENGHSETSGQTHLEGDTVQIIC [S9T]: 2.78.
For FVENGHSEASGQTHLEGDTVQIIC [S9A] the value was 2.5; for FVENGHSENSGQTHLEGDTVQIIC [S9N], 2.76.
For FVENGHSEPSGQTHLEGDTVQIIC [S9P] the value was 2.75.
Take FVENGHSEKSGQTHLEGDTVQIIC [S9K]: the protein stability index stood at 2.76.
On to FVENGHSEISGQTHLEGDTVQIIC [S9I], for which the protein stability index amounted to 2.2.
Next, FVENGHSEESGQTHLEGDTVQIIC [S9E]: 3.22; FVENGHSEFSGQTHLEGDTVQIIC [S9F]: 2.19; FVENGHSEDSGQTHLEGDTVQIIC [S9D]: 3.23.
Next, FVENGHSERSGQTHLEGDTVQIIC [S9R]: 2.14.
For FVENGHSELSGQTHLEGDTVQIIC [S9L] the value was 1.99; for FVENGHSEYSGQTHLEGDTVQIIC [S9Y], 1.66.
For FVENGHSECSGQTHLEGDTVQIIC [S9C], the protein stability index came out at 2.02.
For FVENGHSEHSGQTHLEGDTVQIIC [S9H] the value was 2.77.
Next, FVENGHSEVSGQTHLEGDTVQIIC [S9V]: 2.15; FVENGHSEQSGQTHLEGDTVQIIC [S9Q]: 3.14.
For the variant FVENGHSEMSGQTHLEGDTVQIIC [S9M], the protein stability index stood at 2.32.
Next, FVINGHSESSGQTHLEGDTVQIIC [E3I]: 1.94.
For FVTNGHSESSGQTHLEGDTVQIIC [E3T] the value was 2.23.
For the variant FVCNGHSESSGQTHLEGDTVQIIC [E3C], the protein stability index is 1.38.
For FVRNGHSESSGQTHLEGDTVQIIC [E3R] the value was 1.67.
For FVPNGHSESSGQTHLEGDTVQIIC [E3P] the value was 2.38; for FVQNGHSESSGQTHLEGDTVQIIC [E3Q], 1.83.
With FVVNGHSESSGQTHLEGDTVQIIC [E3V], the protein stability index worked out at 1.54.
Consider FVSNGHSESSGQTHLEGDTVQIIC [E3S], for which the protein stability index came to 2.12.
Next, FVWNGHSESSGQTHLEGDTVQIIC [E3W]: 1.56.
Next, FVNNGHSESSGQTHLEGDTVQIIC [E3N]: 1.92; FVLNGHSESSGQTHLEGDTVQIIC [E3L]: 1.81.
For FVFNGHSESSGQTHLEGDTVQIIC [E3F] the value was 2.04.
Regarding FVGNGHSESSGQTHLEGDTVQIIC [E3G], the protein stability index is 2.83.
For FVHNGHSESSGQTHLEGDTVQIIC [E3H] the value was 2.08; for FVMNGHSESSGQTHLEGDTVQIIC [E3M], 1.5; for FVANGHSESSGQTHLEGDTVQIIC [E3A], 2.11.
Next, FVYNGHSESSGQTHLEGDTVQIIC [E3Y]: 1.98; FVKNGHSESSGQTHLEGDTVQIIC [E3K]: 1.78.
For FVDNGHSESSGQTHLEGDTVQIIC [E3D] the value was 1.74.
As to FVENGHSKSSGQTHLEGDTVQIIC [E8K], the protein stability index was 1.97.
For FVENGHSCSSGQTHLEGDTVQIIC [E8C] the value was 1.82.
For FVENGHSSSSGQTHLEGDTVQIIC [E8S] the value was 2.32; for FVENGHSHSSGQTHLEGDTVQIIC [E8H], 2.08.
Next, FVENGHSYSSGQTHLEGDTVQIIC [E8Y]: 2.29; FVENGHSDSSGQTHLEGDTVQIIC [E8D]: 2.75.
Regarding FVENGHSISSGQTHLEGDTVQIIC [E8I], the protein stability index was 1.57.
For FVENGHSASSGQTHLEGDTVQIIC [E8A], the protein stability index was determined as 2.15.
Next, FVENGHSRSSGQTHLEGDTVQIIC [E8R]: 2.28; FVENGHSMSSGQTHLEGDTVQIIC [E8M]: 1.57; FVENGHSWSSGQTHLEGDTVQIIC [E8W]: 3.2.
Next, FVENGHSTSSGQTHLEGDTVQIIC [E8T]: 2.16.
For FVENGHSNSSGQTHLEGDTVQIIC [E8N] the value was 2.18; for FVENGHSFSSGQTHLEGDTVQIIC [E8F], 1.64; for FVENGHSGSSGQTHLEGDTVQIIC [E8G], 2.22.
Take FVENGHSQSSGQTHLEGDTVQIIC [E8Q]: the protein stability index amounted to 2.15.
For FVENGHSPSSGQTHLEGDTVQIIC [E8P] the value was 2.51.
Next, FVENGHSVSSGQTHLEGDTVQIIC [E8V]: 2.45.
For the variant FVENGHSLSSGQTHLEGDTVQIIC [E8L], the protein stability index came to 1.81.
For FVENGISESSGQTHLEGDTVQIIC [H6I] the value was 2.57; for FVENGTSESSGQTHLEGDTVQIIC [H6T], 2.79.
For FVENGESESSGQTHLEGDTVQIIC [H6E] the value was 3.65.
For FVENGASESSGQTHLEGDTVQIIC [H6A] the value was 3.02.
With FVENGKSESSGQTHLEGDTVQIIC [H6K], the protein stability index amounted to 3.33.
Next, FVENGRSESSGQTHLEGDTVQIIC [H6R]: 2.85.
For the variant FVENGVSESSGQTHLEGDTVQIIC [H6V], the protein stability index is 2.74.
For FVENGQSESSGQTHLEGDTVQIIC [H6Q] the value was 2.37; for FVENGMSESSGQTHLEGDTVQIIC [H6M], 2.32; for FVENGWSESSGQTHLEGDTVQIIC [H6W], 2.7.
For FVENGLSESSGQTHLEGDTVQIIC [H6L] the value was 2.19.
For FVENGNSESSGQTHLEGDTVQIIC [H6N] the value was 3.52; for FVENGYSESSGQTHLEGDTVQIIC [H6Y], 1.93; for FVENGSSESSGQTHLEGDTVQIIC [H6S], 2.92.
FVENGDSESSGQTHLEGDTVQIIC [H6D]: the protein stability index amounted to 3.87.
Next, FVENGPSESSGQTHLEGDTVQIIC [H6P]: 3.18; FVENGFSESSGQTHLEGDTVQIIC [H6F]: 2.29.
Consider FVENGGSESSGQTHLEGDTVQIIC [H6G], for which the protein stability index came out at 3.12.
For FVENGCSESSGQTHLEGDTVQIIC [H6C] the value was 2.28.
